This series relates to MS2 coat protein. Briefly: apparent KD of MS2 coat protein; designed switch direction (-1 OFF switch, 1 ON switch): 1; higher = weaker reporter binding. In short, it runs like this: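 Apparent KD, taken as the median over clusters for each design, was obtained by curve-fitting normalised cluster fluorescence. Designed RNA switches had been transcribed on Illumina chips by stalled E. coli RNA polymerase and titrated with SNAP-549-labelled MS2 coat protein, doubling from 0.7 or 1.5 nM to 3 µM.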

[1] abbreviates: input ligand: microRNA oligo, concentration not stated.
[2] abbreviates: Eterna round: R95, input ligand: FMN 200 uM.
The mark [3] stands for this setting: Eterna round: R95, input ligand: microRNA oligo, concentration not stated.
Where [4] appears, read: Eterna round: R95, input ligand: none.

Regarding “UUAUUAAUUACAUGAGGAUCACCCAUGUUUUUUUGUCAGAGACAGGAUAUAGAAGUCUCGUUUUACUAGAAGGGUCAUUAUAUG [JR_SSNG3_Sub014] (Eterna round: R96, puzzle: Same State NG 3)”, the “apparent KD of MS2 coat protein” value (input ligand: FMN 200 uM) came to 25.6 nM, the “apparent KD of MS2 coat protein” value under setting [1] was 19 nM and the “apparent KD of MS2 coat protein” value (input ligand: none) was determined as 29.7 nM.

With “ACAUGAGACCUAGGAUAUAUUGUACCUACAUGUGACAUGAGGAUCACCCAUGUGGUAAGUAUGACAUAGAAGGAGGAGAUAUGU [Equivalance 93 - Jieux - Same State NG 2] (Eterna round: R96, puzzle: Same State NG 2)”, the “apparent KD of MS2 coat protein” value (input ligand: FMN 200 uM) was 31.5 nM, the “apparent KD of MS2 coat protein” value under setting [1] amounted to 27.2 nM and the “apparent KD of MS2 coat protein” value (input ligand: none) amounted to 54.7 nM.

Consider “AGUCCAGCCUGAGCUGGACAAAAGCAUGUACAUGAGGAUCACCCAUGUCAUGUACAAGCUUUUUGCUCGAAAUAAUA [Mat - hsa-mir-208a - Mod of JL - D32] (Eterna round: R96, puzzle: Sensor for hsa-mir-208a)”, for which the “apparent KD of MS2 coat protein” value runs as follows: (input ligand: FMN 200 uM) 626 nM; under setting [1], 14.4 nM; (input ligand: none) 561 nM.

For the sequence “CGUCCAGCCUGAGCUGGACAAAAGCAUGUACAUGAGGAUCACCCAUGUUCAUGUACAAGCUUUUUGCUCGUCUUAGC [salish99_208a_r3_075] (Eterna round: R96, puzzle: Sensor for hsa-mir-208a)”, the “apparent KD of MS2 coat protein” value is, setting by setting: (input ligand: FMN 200 uM) 598 nM; under setting [1], 13.8 nM; (input ligand: none) 616 nM.

“GUAAAACAUGAGGAUCACCCAUGUCAACAAAGUCGAGGAUAUGGGCAAAUAAAAUAAGAACCAGAAGGCGAAUAAG [salish99_SS1_r3_009] (Eterna round: R96, puzzle: Same State 1)”: the “apparent KD of MS2 coat protein” value was 45.9 nM (input ligand: FMN 200 uM), 125 nM under setting [1] and 235 nM (input ligand: none).

“AGAUCAUGACGAGGAUAUGGAACAUGAGGAUCACCCAUGUAUGUUCCAUAACGCGAACGACGAAUCCAGAAGGCGUCGUGAUCA [Mat - Same State NG 2 - JL mod - D42] (Eterna round: R96, puzzle: Same State NG 2)”: the “apparent KD of MS2 coat protein” value is, setting by setting: (input ligand: FMN 200 uM) 5.24 nM; under setting [1], 21.6 nM; (input ligand: none) 26.3 nM.

As to “UCUUGGUUUUUGCUCGUUUUUUGUGUUGAACAUGAGGAUCACCCAUGUAUUGUACGGUCCGGUUUGAUAGUGGUCCA [JMF 45] (puzzle: Sensor for hsa-mir-208a)”, the “apparent KD of MS2 coat protein” value is, setting by setting: under setting [2], 111 nM; under setting [3], 71.6 nM; under setting [4], 120 nM.

For “UGUAUACAUGAGGAUCACCCAUGUCAACGUAGUCGAGGAUAUGGGCAGCCGUGAGGCGUACUAGAAGGCGAAGAGG [JL-ss1-3.06 ViennaUCT mod] (puzzle: Same State 1)”, the “apparent KD of MS2 coat protein” value under setting [3] came to 116 nM.

On to “UAUAUUAUGGUAGGAUAUCUAGGAUAUGGGAAGAGCUAAGCUUGGAAGUCACUUCACCCAGAAGGAGAGAAGGACCAUAAUAUU [pwkr ssNG2 2FMN + F9.5] (Eterna round: R96, puzzle: Same State NG 2)”, for which the “apparent KD of MS2 coat protein” value (input ligand: FMN 200 uM) came to 105 nM, the “apparent KD of MS2 coat protein” value under setting [1] worked out at 240 nM and the “apparent KD of MS2 coat protein” value (input ligand: none) is 76.7 nM.

In the case of “AUUUCUAGCACAGGAUAUCAUGCGAAAAUUGCGUGAGAAGGGUGGACGCUGUCAUUCACGGAAGACAUGAGGAUCACCCAUGUC [SameState NG1 #76] (Eterna round: R96, puzzle: Same State NG 1)”, the “apparent KD of MS2 coat protein” value (input ligand: FMN 200 uM) came to 48 nM, the “apparent KD of MS2 coat protein” value under setting [1] came to 53.4 nM and the “apparent KD of MS2 coat protein” value (input ligand: none) stood at 102 nM.

For “GCUAGAAAUAAAGCCAACAUGAGGAUCACCCAUGUAUGUUGGUAGGAUAUCGUUUGCAAAGCAAACGAGAAGGGCUAAUCUAGC [Mat - Same State NG 3 - JL Mod - D65] (Eterna round: R96, puzzle: Same State NG 3)”, the “apparent KD of MS2 coat protein” value by setting is: (input ligand: FMN 200 uM) 76.4 nM; under setting [1], 63.8 nM; (input ligand: none) 69.8 nM.

Consider “CGAAGUCGUAGAGGAUAUGGGUGGCCGGAGUCAACAUGAGGAUCACCCAUGUGCUAAUAUGAGAUCCAGAAGGCUGCGAACGGG [Eternabot solution 16] (Eterna round: R96, puzzle: Same State NG 2)”, for which the “apparent KD of MS2 coat protein” value by setting is: (input ligand: FMN 200 uM) 57.1 nM; under setting [1], 31.4 nM; (input ligand: none) 430 nM.

On to “AAGCGCUGUCGAGAGGAUAUGCGGUGAUGGACAUGAGGAUCACCCAUGUUAGCGAUAGCAUUACGGUAGAAGGCUCUACAGCUGA [Mat - Same State 2 - Mod of UCT - D86] (puzzle: Same State 2)”, for which the “apparent KD of MS2 coat protein” value stood at 28.3 nM under setting [2], 268 nM under setting [3] and 272 nM under setting [4].

As for “CGCCGACAUGAGGAUCACCCAUGUGAGCGACUCACAGGAUAUACGCGAUAACAAAGUCGCGUAGAAGGGUGCUCCU [Iscezaso] (puzzle: Same State 1)”, the “apparent KD of MS2 coat protein” value reads like this: under setting [2], 23.4 nM; under setting [3], 19.2 nM; under setting [4], 23.3 nM.

For “UUUAGAUCGCGAGGAUAUCGCGAGGAUCACCCGUGAGAAGGCGCAGAGCCGAGGAUCACCCGGCUGAUCCUGAGGAGGAGGUCU (Eterna round: R96, puzzle: Same State NG 1)”, the “apparent KD of MS2 coat protein” value (input ligand: FMN 200 uM) was determined as 106 nM, the “apparent KD of MS2 coat protein” value under setting [1] was determined as 184 nM and the “apparent KD of MS2 coat protein” value (input ligand: none) came out at 269 nM.

On to “GGUCCAGCCUGAGCUGGACAAAAGCAUGUACAUGAGGAUCACCCAUGUCAUGUACAAGCUUUUUGCUCGUCUAAAUU [Mat - hsa-mir-208a - 94] (puzzle: Sensor for hsa-mir-208a)”, for which the “apparent KD of MS2 coat protein” value worked out at 781 nM under setting [2], 15.1 nM under setting [3] and 578 nM under setting [4].

Regarding “GCAUCACAUGAGGAUCACCCAUGUCUUCGGAGCGGAGGAUAUGGUCACUGUAAACAGUGGCCAGAAGGCUGGAUGC [SS1 - Son of Teenbexe v3] (puzzle: Same State 1)”, the “apparent KD of MS2 coat protein” value under setting [3] was 26 nM.

For “AAAAGACAUGAGGAUCACCCAUGUAUGAAAAGUACAGGAUAUCACGCGCUAAAAUGCGAGUGAGAAGGGUGAAAAU [Oronen] (puzzle: Same State 1)”, the “apparent KD of MS2 coat protein” value was found to be 4350 nM under setting [2], 51.3 nM under setting [3] and 180 nM under setting [4].

As to “GUGGUCAGACAUGAGGAUCACCCAUGUGGAAUAAAUAAGGAGAAGGAUAUGGAAUAUAGGAUAUACCAGAAGGUUUGGUUGGUG (Eterna round: R96, puzzle: Same State NG 3)”, the “apparent KD of MS2 coat protein” value under setting [1] stood at 90.5 nM.

On to “CCAAUGUACAAUUUAGAUCUACAUGAGGAUCACCCAUGUACAGAGGAUAUCAGCUCGUGUAGAGCUGAGAAGGCUGAAUUAAUU [SSNG3/3-A4] (Eterna round: R96, puzzle: Same State NG 3)”, for which the “apparent KD of MS2 coat protein” value is, setting by setting: (input ligand: FMN 200 uM) 117 nM; under setting [1], 117 nM; (input ligand: none) 179 nM.

In the case of “AGCGAGAUAGGCAAGGAUAUGCUGGGUUUCACAUGAGGAUCACCCAUGUCAUAGGUAAUGUCCGAGCAGAAGGUGCAUUCUCUUU [ak bound state multiloop solution] (puzzle: Same State 2)”, the “apparent KD of MS2 coat protein” value under setting [3] turned out to be 172 nM.

“AUUAAACAUGAGGAUCACCCAUGUCAACAAAGUCGAGGAUAUGGGCAUAUUAUCUAAUAACCAGAAGGCGAAUAAU [salish99_ss1_r3_085] (puzzle: Same State 1)”: the “apparent KD of MS2 coat protein” value came out at 43.8 nM under setting [2], 194 nM under setting [3] and 210 nM under setting [4].

Regarding “GUUACAUGAGGAUCACCCAUGUAUGUGUGGGAGUAAGUGUCUUAGGAUAUCUAUGAUUUAAUUUCAGAGAAGGAAGAUUGUUGU [JMF's solution 88] (Eterna round: R96, puzzle: Same State NG 3)”, the “apparent KD of MS2 coat protein” value reads like this: (input ligand: FMN 200 uM) 119 nM; under setting [1], 68 nM; (input ligand: none) 109 nM.

For “GUGGAGAAUUAAGGAUAUCGAGUCAAGAUGUUAAACAUGAGGAUCACCCAUGUGGGUUGCGGUAUCGAGAAGGUAAUUUACGGG [salish99_SSNG2_r04_505] (Eterna round: R96, puzzle: Same State NG 2)”, the “apparent KD of MS2 coat protein” value by setting is: (input ligand: FMN 200 uM) 22.4 nM; under setting [1], 21.3 nM; (input ligand: none) 36.8 nM.

On to “GAGGGACAGACCAACAUGAGGAUCACCCAUGUCCUCGCAGGUCAGGAUAUUAUGAGGAUCACCCGUGAGAAGGGACGGUGAAUU (Eterna round: R96, puzzle: Same State NG 3)”, for which the “apparent KD of MS2 coat protein” value (input ligand: FMN 200 uM) worked out at 709 nM, the “apparent KD of MS2 coat protein” value under setting [1] was found to be 390 nM and the “apparent KD of MS2 coat protein” value (input ligand: none) amounted to 804 nM.

With “AACCUACAUGAGGAUCACCCAUGUGUCUAAGGCACAGGAUAUCGACAGGCAAGACGCCUGCGAGAAGGGUGACCUA [Erononer] (puzzle: Same State 1)”, the “apparent KD of MS2 coat protein” value by setting is: under setting [2], 58.7 nM; under setting [3], 34.4 nM; under setting [4], 262 nM.

In the case of “UUAUUAAUUACAUGAGGAUCACCCAUGUUAAAUAGUCAGAGACAGGAUAUAGAAGUCUCGUUUUACUAGAAGGGUCAUUAUAUG [JR_SSNG3_Sub013] (Eterna round: R96, puzzle: Same State NG 3)”, the “apparent KD of MS2 coat protein” value reads like this: (input ligand: FMN 200 uM) 40.7 nM; under setting [1], 27.2 nM; (input ligand: none) 35.8 nM.

As for “GGUCCAGCCUGAGCUGGACAAAAGCAUGUACAUGAGGAUCACCCAUGUCAUGUACAAGCUUUUUGCUCGUCAUAAUG [Mat - hsa-mir-208a - 99] (puzzle: Sensor for hsa-mir-208a)”, the “apparent KD of MS2 coat protein” value came out at 713 nM under setting [2], 18.6 nM under setting [3] and 806 nM under setting [4].

These data come from the supplement of paper PMC9170038.
